17 molecules from patent US20030175288A1 (GREEN PEPTIDE, published 2003) can be followed below.

Sequences and labels used below:
B1: P17 (peptide)
peptide: GLLFLHTRT
notes: synthetic peptide; also called gene 5 (ppMAPkkk) 294-302
B2: P15 (peptide)
peptide: IIYDRKFLM
notes: synthetic peptide; also called gene 4 (EIF4EBP1) 52-60
B3: P5 (peptide)
peptide: ILPRKHHRI
notes: synthetic peptide; also called gene 1 (UBE2V) 208-216
B4: P13 (peptide)
peptide: TLLRKERGV
notes: synthetic peptide; also called gene 3 (WHSC2) 267-275
B5: P16 (peptide)
peptide: QILKGLLFL
notes: synthetic peptide; also called gene 5 (ppMAPkkk) 290-298
B6: P3 (peptide)
peptide: LIADFLSGL
notes: synthetic peptide; also called gene 1 (UBE2V) 85-93
B7: P7 (peptide)
peptide: CLYGNVEKV
notes: synthetic peptide; also called gene 2 (HNRPL) 404-412
B8: P12 (peptide)
peptide: MLPLECQYL
notes: synthetic peptide; also called gene 3 (WHSC2) 157-165
B9: P11 (peptide)
peptide: ILGELREKV
notes: synthetic peptide; also called gene 3 (WHSC2) 141-149
B10: P14 (peptide)
peptide: RIIYDRKFL
notes: synthetic peptide; also called EIF4EBP1 51-59; gene 4 51-59
B11: P9 (peptide)
peptide: NVLHFFNAPL
notes: synthetic peptide; also called gene 2 (HNRPL) 501-510
B12: P1 (peptide)
peptide: RLQEWCSVI
notes: synthetic peptide; positions counted on the gene 1 product; also called UBE2V 43-51; gene 1 43-51
B13: P2 (peptide)
peptide: LLLLARWEDT
notes: synthetic peptide; also called gene 1 (UBE2V) 64-73

The experiment has as its target T1, HLA-A0201 molecule on T2 cells (human).
T1 construct: MHC class I molecule without peptide on T2 cells; detected with anti-HLA-A2 mAb BB7.2; also called HLA-A2 molecule
The experiment can be described thus: T2 cells with 10 µM peptide, HLA-A2 stained with mAb BB7.2, flow cytometry (relative MFI). The procedure:
Binding activity of the peptide to the HLA-A0201 molecule was tested using a T2 cell mutant strain (Cancer Res., 54:1071-1076, 1994.) The T2 cell expresses the HLA-A2 molecule on a cell surface without binding to a peptide, because of deficiency of TAP. Specifically, the synthesized peptide (10 μM) and the T2 cells were incubated at 26° C. for 3 h and, subsequently, incubated in 5% CO₂ and 95% air at 37° C. for 3 h. Thus, T2 cells, on whose surface the peptide was presented by HLA-A2, were obtained.
In turn, QQLCVYWTV (synthetic peptide) [P19] returned an MFI of 775.

Consider ALVEFEDVL (synthetic peptide) [P6], for which the MFI was 819.

B1 came in with an MFI of 660.

For B2, the MFI amounted to 789.

With B3, the MFI amounted to 637.

B4 showed an MFI of 656.

The molecule LLQDWHVIL (synthetic peptide) [P4] came in with an MFI of 1010.

In the case of B5, the MFI came to 887.

With B6, the MFI is 910.

Molecule B7 gave an MFI of 783.

The molecule B8 came in with an MFI of 780.

The molecule B9 registered an MFI of 1090.

The molecule B10 gave an MFI of 591.

In turn, B11 registered an MFI of 832.

DLLSHAFFA (synthetic peptide) [P18]: the MFI amounted to 657.

B12 registered an MFI of 571.

The molecule B13 came in with an MFI of 607.
